Results on two molecules are retold here after patent US11578136B2, “Compositions and methods for treating cancer” (INNATE PHARMA, priority 2017, dated 2023).

Test [1] relates to NTPDase1, NTPDase3, NPP1 or mouse NTPDase8. The following applies: not specific for CD39; cited from earlier work.
For test [2], the target named is T1, soluble recombinant human CD39 protein (Homo sapiens, UniProt P49961).
T1 construct: made in house; host or cells: CHO cells
T1 sequence (P49961 with tags, fused parts or gaps): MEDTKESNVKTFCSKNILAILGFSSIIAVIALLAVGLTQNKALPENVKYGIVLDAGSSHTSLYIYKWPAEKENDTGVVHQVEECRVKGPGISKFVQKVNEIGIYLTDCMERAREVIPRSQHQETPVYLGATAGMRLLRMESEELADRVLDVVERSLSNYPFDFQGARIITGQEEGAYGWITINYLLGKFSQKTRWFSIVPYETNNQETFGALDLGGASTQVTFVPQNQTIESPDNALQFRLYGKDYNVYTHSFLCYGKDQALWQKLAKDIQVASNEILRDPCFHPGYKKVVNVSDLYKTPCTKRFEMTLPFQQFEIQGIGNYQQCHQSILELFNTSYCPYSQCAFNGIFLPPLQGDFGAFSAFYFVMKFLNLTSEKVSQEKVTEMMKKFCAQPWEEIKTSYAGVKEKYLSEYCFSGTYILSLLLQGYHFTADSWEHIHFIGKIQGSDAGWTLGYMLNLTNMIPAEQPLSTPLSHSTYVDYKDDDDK
Nature of the test: Inhibition of the enzymatic activity of soluble CD39 (Cell Titer Glo). The format is biochemical. The note with it: result in words; 400 ng/ml sCD39, 20 μM ATP. The method, then: The inhibition by antibodies of the enzymatic activity of soluble CD39 protein produced was evaluated using Cell Titer Glo™ (Promega, reference G7571) that allows assessment of ATP hydrolysis through use of a reagent that generates a luminescent signal proportional to the amount of ATP present. In this way, inhibition of the soluble-CD39-meidatd ATP hydrolysis can be assessed. Briefly, dose ranges of anti-CD39 antibodies from 100 μg/ml to 6×10^−3 μg/ml were incubated with 400 ng/ml of soluble recombinant human CD39 protein having the amino acid sequence described in the Methods section (SEQ ID NO: 45), for 1 h at 37° C. 20 μM ATP was added to the plates for 30 additional minutes at 37° C. before addition of CTG (Cell Titer Glo) reagent. Emitted light was quantified using an Enspire™ luminometer after a short incubation period of 5 min in the dark. Anti-CD39 antibody efficacy was determined by comparing emitted light in presence of antibody with ATP alone (maximal light emission) and ATP together with soluble CD39 protein (minimal light emission).

In test [3] the test system is CD39 mutants transfected in Hek-293T cells. Nature of the test: Epitope mapping: binding to CD39 mutants by flow cytometry. More on the design: species or system human. On the procedure: CD39 mutants were generated by PCR. The sequences amplified were run on agarose gel and purified using the Macherey Nagel PCR Clean-Up Gel Extraction kit (reference 740609). The purified PCR products generated for each mutant were then ligated into an expression vector, with the ClonTech InFusion system. The vectors containing the mutated sequences were prepared as Miniprep and sequenced. After sequencing, the vectors containing the mutated sequences were prepared as Midiprep using the Promega PureYield™ Plasmid Midiprep System. HEK293T cells were grown in DMEM medium (Invitrogen), transfected with vectors using Invitrogen's Lipofectamine 2000 and incubated at 37° C. in a CO2 incubator for 48 hours prior to testing for transgene expression. The targeted amino acid mutations in the table 1 below are shown using numbering of SEQ ID NO: 1.
In order to define the epitopes of anti-CD39 antibodies, we designed CD39 mutants defined by substitutions of amino acids exposed at the molecular surface over the surface of CD39. Mutants were transfected in Hek-293T cells, as shown in the table 1, using numbering of SEQ ID NO: 1.
Dose-ranges of I-394 (10-2.5-0.625-0.1563-0.0391-0.0098-0.0024-0.0006 μg/ml) are tested on the 20 generated mutants by flow cytometry. […] Mutant 5 contains amino acid substitutions at residues Q96, N99, E143 and R147.
Mutants were transfected in Hek-293T cells, as shown in the table 1, using numbering of SEQ ID NO: 1. Dose-ranges of antibodies I-394 were tested on the 20 mutants by flow cytometry. […] Mutant 19 includes substitutions at residues R138, M139 and E142. The core epitope of I-394 thus includes one or more (or all of) residues R138, M139 and E142.
Mutants were transfected in Hek-293T cells, as shown in the table 1, using numbering of SEQ ID NO: 1.Dose-ranges of test antibodies (10-2.5-0.625-0.1563-0.0391-0.0098-0.0024-0.0006 μg/ml) are tested on the 20 generated mutants by flow cytometry.

`CCN(CC)c1ncnc2c1ncn2[C@@H]1O[C@H](COP(=O)(O)OP(=O)(O)C(Br)(Br)P(=O)(O)O)[C@@H](O)[C@H]1O` [ARL67156]: the “type of inhibition of NTPDases” value in test [1] is “weak competitive inhibitor”.

B1: I-399: anti-CD39 antibody, VH SEQ ID NO: 30, VL SEQ ID NO: 31 (antibody, listed as Mus musculus, V domains shown)
VH: PVQLQQPGAEVVMPGASVKLSCKASGYTFTSFWMNWMRQRPGQGLEWIGEIDPSDFYTNSNQRFKGKATLTVDKSSSTAYMQLSSLTSEDSAVYFCARGDFGWYFDVWGTGTSVTVSS
VL: EIVLTQSPTTMTSSPGEKITFTCSASSSINSNYLHWYQQKPGFSPKLLIYRTSNLASGVPTRFSGSGSGTSYSLTIGTMEAEDVATYYCQQGSSLPRTFGGGTKLEIK
Consider B1, for which, in test [2], the “inhibition of the enzymatic activity of soluble CD39 protein” value was “showed inhibition”. Further, the “binding to mutant 11 of CD39” value in test [3] (mutant 11: N371K, L372K, E375A, K376G, V377A, insertion 377V) was “loss of binding”. The “binding to any other mutant of the 20 CD39 mutants” value in test [3] (remaining mutants of Table 1) was “without loss of binding”.
